Measurements as given in patent publication US8815798B2, “Insulin analogues containing additional disulfide bonds” (priority 2010, dated 2014).
One block for each substance: values may come before it.

How the values were obtained:
[1] = molecular target: T1, Human Insulin Receptor A (Homo sapiens, UniProt P06213); experiment: Insulin receptor binding assay (on solubilised insulin receptor), SPA; conditions: SPA competition with [125I]A14Tyr-labelled insulin, solubilized human IR-A
T1 construct: solubilized human IR (holoreceptor); made in house; host or cells: baby hamster kidney (BHK) cells stably transfected with pZem vector containing the human IR-A insert
T1 sequence (P06213 28-746 isoform P06213-2 limits assumed): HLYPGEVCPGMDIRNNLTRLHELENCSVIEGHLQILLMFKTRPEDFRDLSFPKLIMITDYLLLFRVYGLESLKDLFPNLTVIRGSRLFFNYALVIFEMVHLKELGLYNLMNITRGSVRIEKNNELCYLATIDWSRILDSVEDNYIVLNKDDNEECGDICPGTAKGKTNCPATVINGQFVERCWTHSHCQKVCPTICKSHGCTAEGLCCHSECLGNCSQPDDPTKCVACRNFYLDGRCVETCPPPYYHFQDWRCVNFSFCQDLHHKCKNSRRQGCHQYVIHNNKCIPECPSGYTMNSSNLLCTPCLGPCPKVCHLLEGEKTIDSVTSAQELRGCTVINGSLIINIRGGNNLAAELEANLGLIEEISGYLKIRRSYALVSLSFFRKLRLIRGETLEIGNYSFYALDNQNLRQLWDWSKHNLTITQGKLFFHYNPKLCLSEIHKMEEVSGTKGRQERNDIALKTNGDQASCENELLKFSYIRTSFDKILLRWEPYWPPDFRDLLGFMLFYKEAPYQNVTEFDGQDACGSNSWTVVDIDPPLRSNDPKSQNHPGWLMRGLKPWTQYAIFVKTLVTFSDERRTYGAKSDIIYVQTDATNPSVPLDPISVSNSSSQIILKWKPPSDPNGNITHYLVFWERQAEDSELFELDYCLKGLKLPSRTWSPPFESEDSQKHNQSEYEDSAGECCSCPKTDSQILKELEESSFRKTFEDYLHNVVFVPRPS
T1 sequence (P06213 763-1382 partner limits assumed): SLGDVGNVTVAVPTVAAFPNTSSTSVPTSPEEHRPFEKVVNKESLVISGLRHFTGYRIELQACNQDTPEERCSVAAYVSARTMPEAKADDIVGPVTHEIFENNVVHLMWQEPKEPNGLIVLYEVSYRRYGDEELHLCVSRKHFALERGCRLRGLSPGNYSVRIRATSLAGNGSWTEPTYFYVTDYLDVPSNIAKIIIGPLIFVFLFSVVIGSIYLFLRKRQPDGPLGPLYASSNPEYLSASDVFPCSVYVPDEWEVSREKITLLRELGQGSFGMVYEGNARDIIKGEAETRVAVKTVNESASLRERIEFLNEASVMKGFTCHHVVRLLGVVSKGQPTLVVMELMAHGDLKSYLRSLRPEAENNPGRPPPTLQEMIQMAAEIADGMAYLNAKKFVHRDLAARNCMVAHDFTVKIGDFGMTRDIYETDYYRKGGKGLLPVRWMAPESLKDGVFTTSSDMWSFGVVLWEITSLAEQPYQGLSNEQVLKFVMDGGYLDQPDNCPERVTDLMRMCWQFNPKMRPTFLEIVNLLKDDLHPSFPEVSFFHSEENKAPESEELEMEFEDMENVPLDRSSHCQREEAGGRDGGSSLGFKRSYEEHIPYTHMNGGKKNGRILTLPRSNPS
Procedure: (2008), Biochemistry, 47, 4743-4751). Competition binding experiments were performed in 96-well plates (polystyrene Optiplate-96, PerkinElmer) on an Eppendorf epMotion 5075 robot using solubilized human IR (holoreceptor) semipurified by wheat germ agglutinin purification from baby hamster kidney (BHK) cells, which were stably transfected with the pZem vector containing the human IR-A or IR-B insert. […] A reagent mix consisting of SPA beads (SPA PVT Antibody-Binding Beads, Anti-Mouse Reagent Cat. No. […] (2008), Biochemistry, 47, 4743-4751). Competition binding experiments were performed in 96-well plates (polystyrene OPTIPLATE-96TM, PerkinElmer) on an Eppendorf EPMOTION® 5075 robot using solubilized human IR (holoreceptor) semipurified by wheat germ agglutinin purification from baby hamster kidney (BHK) cells, which were stably transfected with the pZem vector containing the human IR-A or IR-B insert. […] A reagent mix consisting of SPA beads (SPA PVT Antibody-Binding Beads, Anti-Mouse Reagent Cat. No.

[2] = Thioflavin T (ThT) fibrillation assay; type: physicochemical; conditions: mean of four samples with standard deviation, 37° C., 960 rpm
Excerpt: General Procedure for Thioflavin T (ThT) Fibrillation Assay:
This has traditionally been measured by visual inspection of the sample. However, that kind of measurement is very subjective and depending on the observer. Therefore the application of a small molecule indicator probe is much preferred. […] The time course for fibril formation can be described by a sigmoidal curve with the following expression (Nielsen at al. Biochemistry 40, 6036-6046, 2001):
Here, F is the ThT fluorescence at the time t. The constant t0 is the time needed to reach 50% of maximum fluorescence.
Samples were prepared freshly before each assay. […] Thioflavin T was added to the samples from a stock solution in water to a final concentration of 1 μM. Sample aliquots of 200 μl were placed in a 96 well microtiter plate (Packard Optiplate™-96, white polystyrene). Usually four replica of each sample (corresponding to one test condition) were placed in one column of wells. The plate was sealed with Scotch Pad (Qiagen).
The temperature was adjusted to 37° C. […] Fluorescence measurements were done using excitation through a 444 nm filter and measurement of emission through a 485 nm filter.
Each run was initiated by incubating the plate at the assay temperature for 10 min. The plate was measured every 20 minutes for typically 45 hours. Between each measurement, the plate was shaken and heated as described above.
The data points are typically a mean of four samples. Only data obtained in the same experiment (i.e. samples on the same plate) are presented in the same graph ensuring a relative measure of fibrillation between the individual samples of one assay rather then comparison between different assays.
The data set may be fitted to Eq. (1).

[3] = test system: Primary rat adipocytes; experiment: Lipogenesis in rat adipocytes; type: cell-based; conditions: 3H-glucose conversion into extractable lipids; relative potency compared to human insulin
Excerpt: As a measure of in vitro potency of the insulins of the invention, lipogenesis can be used.
The labelled glucose is converted into extractable lipids in a dose dependent way, resulting in full dose response curves.

[4] = Hydrophobicity by isocratic reverse phase HPLC (k'rel); type: physicochemical; conditions: hydrophobicity relative to human insulin (k'rel HI = 1); isocratic RP-HPLC, pH 7.3
Procedure: The hydrophobicity, k′rel, is calculated as: k′relderiv=((tderiv−t0)/(trel−t0))*k′relref. Using HI as reference: k′relref=k′relHI=1. The void time of the HPLC system, t0, is determined by injecting 5 μl of 0.1 mM NaNO3. Running conditions:
Column: Lichrosorb RP-C18, 5 μm, 4×250 mm
Buffer A: 0.1 M natrium phosphate pH 7.3, 10 vol % CH3CN
After running an initial gradient, the isocratic level for running the analogue and reference (for example HI) is chosen, and the elution times of the analogue and reference under isocratic conditions are used in the above equation to calculate k′relderiv.

Relative Affinity to Human Insulin Receptor A (% HI) [1]: 80.0 % HI
Substance: A10C, A21G, B2C, B3E, B28E, desB30 human insulin [Example 17]

Relative Affinity to Human Insulin Receptor A (% HI) [1]: 20.0 % HI
Substance: A10C, A21G, B3C, desB27, B28E, desB30 human insulin [Example 23]

Substance: A10C, A22K, B3C, desB27, desB30 human insulin [Example 28]
ThT fluorescence, 0 h ([2]; 0 h): 35.8 ± 0.9
ThT fluorescence, 2 h ([2]; 2 h): 29.4 ± 1
ThT fluorescence, 20 h ([2]; 20 h): 27.6 ± 0.8
ThT fluorescence, 45 h ([2]; 45 h): 25 ± 0.7
Lipogenesis (potency rel to HI) [3]: 25.3%
k′-rel (human insulin) [4]: 0.0810

Relative Affinity to Human Insulin Receptor A (% HI) [1]: 10.0 % HI
Substance: A21C, B10E, B26C, desB30 human insulin [Example 78]
